In patent publication US20250076311A1 (Chugai, published 2025):
Each block holds one binder with its values, some of them ahead of it.

How the values were obtained:
[1] = molecular target: T1, cynomolgus monkey FcγRIIa3 extracellular domain with C-terminal His-tag (cynomolgus monkey); test: SPR Biacore, antibody captured, FcgR analyte
T1 construct: also called cyno FcgRIIa3; cynoFcγRIIa3; not shown: His-tag added to C-terminus
T1 chain: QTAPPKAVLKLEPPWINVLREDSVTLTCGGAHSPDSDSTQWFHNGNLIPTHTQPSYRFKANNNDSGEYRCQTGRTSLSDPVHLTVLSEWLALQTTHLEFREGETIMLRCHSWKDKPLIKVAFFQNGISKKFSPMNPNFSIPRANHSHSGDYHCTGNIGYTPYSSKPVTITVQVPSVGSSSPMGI

[2] = molecular target: T2, cynomolgus monkey FcγRIIb extracellular domain with C-terminal His-tag (cynomolgus monkey); test: SPR Biacore, antibody captured, FcgR analyte
T2 construct: also called cyno FcgRIIb; cynoFcγRIIb; not shown: His-tag added to C-terminus
T2 chain: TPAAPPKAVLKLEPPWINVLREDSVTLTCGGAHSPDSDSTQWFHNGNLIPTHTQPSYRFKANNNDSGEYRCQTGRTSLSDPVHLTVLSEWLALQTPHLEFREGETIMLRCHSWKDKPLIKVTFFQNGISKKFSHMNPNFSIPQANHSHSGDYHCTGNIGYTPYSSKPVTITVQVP

[3] = molecular target: T3, cynomolgus monkey FcγRIIIaS extracellular domain with C-terminal His-tag (cynomolgus monkey, UniProt A3RFZ7 21-206 (rhesus entry)); test: SPR Biacore, antibody captured, FcgR analyte
T3 construct: also called cyno FcgRIIIaS; cynoFcγRIIIaS; not shown: His-tag added to C-terminus
T3 sequence (A3RFZ7 21-206): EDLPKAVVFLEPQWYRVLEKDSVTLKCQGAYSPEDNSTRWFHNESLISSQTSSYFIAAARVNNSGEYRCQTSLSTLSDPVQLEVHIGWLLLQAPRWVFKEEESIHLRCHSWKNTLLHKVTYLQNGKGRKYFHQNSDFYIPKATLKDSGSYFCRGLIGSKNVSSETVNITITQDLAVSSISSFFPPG

[4] = molecular target: T4, human FcγRIIaR extracellular domain with C-terminal His-tag (human, UniProt P12318 34-217); test: SPR Biacore, antibody captured, FcgR analyte
T4 construct: also called human FcgRIIaR; FcγRIIa (type R); not shown: His-tag added to C-terminus
T4 chain: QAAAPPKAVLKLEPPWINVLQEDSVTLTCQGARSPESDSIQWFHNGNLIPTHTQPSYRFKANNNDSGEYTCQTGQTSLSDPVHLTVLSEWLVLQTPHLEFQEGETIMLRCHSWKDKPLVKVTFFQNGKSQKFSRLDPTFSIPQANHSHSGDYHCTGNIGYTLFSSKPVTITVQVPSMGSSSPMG

[5] = molecular target: T5, human FcγRIIb extracellular domain with C-terminal His-tag (human, UniProt P31994 43-217); test: SPR Biacore, antibody captured, FcgR analyte
T5 construct: also called human FcgRIIb; not shown: His-tag added to C-terminus
T5 sequence: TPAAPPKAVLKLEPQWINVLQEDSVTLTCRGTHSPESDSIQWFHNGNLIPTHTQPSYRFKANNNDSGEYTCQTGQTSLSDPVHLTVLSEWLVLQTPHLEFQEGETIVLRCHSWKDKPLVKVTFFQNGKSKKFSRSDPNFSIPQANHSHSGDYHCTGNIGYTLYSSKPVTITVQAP

[6] = molecular target: T6, human FcγRIIIaV extracellular domain with C-terminal His-tag (human, UniProt P08637 17-208); test: SPR Biacore, antibody captured, FcgR analyte
T6 construct: also called human FcgRIIIaV; not shown: His-tag added to C-terminus
T6 sequence (P08637 17-208 F176V): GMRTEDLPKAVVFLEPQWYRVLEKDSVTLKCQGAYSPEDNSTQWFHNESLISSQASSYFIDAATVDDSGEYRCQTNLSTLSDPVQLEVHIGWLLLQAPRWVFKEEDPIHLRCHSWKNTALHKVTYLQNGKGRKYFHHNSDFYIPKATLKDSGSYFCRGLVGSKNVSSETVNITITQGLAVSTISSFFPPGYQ

[7] = molecular target: T7, cynomolgus monkey FcγRIIa3 extracellular domain with C-terminal His-tag (cynomolgus monkey); test: SPR (Biacore), KD of SG1 / KD of variant
T7 construct: also called cyno FcgRIIa3; cynoFcγRIIa3
T7 chain: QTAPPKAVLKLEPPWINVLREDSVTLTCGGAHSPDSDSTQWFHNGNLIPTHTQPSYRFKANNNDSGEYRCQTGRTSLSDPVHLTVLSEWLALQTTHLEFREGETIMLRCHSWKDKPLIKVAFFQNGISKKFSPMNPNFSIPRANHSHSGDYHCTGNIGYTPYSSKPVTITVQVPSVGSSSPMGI
Method: The kinetic analysis of interactions between these antibodies and FcγR was carried out using BIACORE® T200 or BIACORE® 4000 (GE Healthcare). HBS-EP+ (GE Healthcare) was used as the running buffer, and the measurement temperature was set to 25° C. […] After the measurement, the antibody captured on the chip was washed off by allowing reaction with 10 mM glycine-HCl, pH1.5 and 25 mM NaOH so that the chip was regenerated and used repeatedly. The sensorgrams obtained as measurement results were analyzed by the 1:1 Langmuir binding model using the BIACORE® Evaluation Software to calculate the binding rate constant ka (L/mol/s) and dissociation rate constant kd (1/s), and the dissociation constant KD (mol/L) was calculated from these values. […] Regarding such interactions, KD values were calculated using the following 1:1 binding model described in BIACORE® T100 Software Handbook BR1006-48 Edition AE.

[8] = molecular target: T8, human FcγRIIaH extracellular domain, His-tagged (human, UniProt P12318 34-217); test: SPR (Biacore), 25C, FcgR bound per antibody captured
T8 construct: also called human FcgRIIaH; FcγRIIa type H
T8 sequence: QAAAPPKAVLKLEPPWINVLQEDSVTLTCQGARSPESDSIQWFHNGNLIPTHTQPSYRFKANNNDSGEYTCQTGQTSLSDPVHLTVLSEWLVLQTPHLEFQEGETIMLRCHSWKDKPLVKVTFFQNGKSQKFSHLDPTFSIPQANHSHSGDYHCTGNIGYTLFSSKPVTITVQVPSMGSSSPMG

[9] = molecular target: T9, human FcγRIIaR extracellular domain, His-tagged (human, UniProt P12318 34-217); test: as above
T9 construct: also called human FcgRIIaR; FcγRIIa type R
T9 chain: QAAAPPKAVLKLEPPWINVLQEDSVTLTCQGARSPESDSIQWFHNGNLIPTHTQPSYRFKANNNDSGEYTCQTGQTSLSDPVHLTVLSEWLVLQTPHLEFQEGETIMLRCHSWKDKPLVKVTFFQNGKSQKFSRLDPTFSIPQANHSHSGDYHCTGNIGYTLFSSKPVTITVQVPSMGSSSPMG

[10] = molecular target: T10, human FcγRIIb extracellular domain, His-tagged (human, UniProt P31994 43-217); test: as above
T10 construct: also called human FcgRIIb
T10 sequence: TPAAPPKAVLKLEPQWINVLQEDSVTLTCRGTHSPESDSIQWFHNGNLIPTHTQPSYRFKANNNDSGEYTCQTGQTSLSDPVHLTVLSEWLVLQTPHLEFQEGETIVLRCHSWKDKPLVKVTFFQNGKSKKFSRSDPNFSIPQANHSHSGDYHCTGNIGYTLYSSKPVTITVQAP

Kd [1]: 6 µM
KD fold (SG1 = 1) [2]: 1 fold
KD fold (SG1 = 1) [3]: 0.16 fold
Kd [3]: 2200 nM
KD fold (SG1 = 1) [4]: 0.1 fold
KD fold (SG1 = 1) [5]: 6.5 fold
Kd [5]: 700 nM
Kd [6]: 6.2 µM
B1: M103205H795-MY176/M103202L889-SK1 (antibody, human IgG1, kappa, name in EU numbering)
heavy: QVTLKESGPVLVKPTETLTLTCTVSGIDLSHDDISWVRQAPGKGLEWVGIISYAGSTYYASWAKGRLTISKDTSKNQVVLTMTNMDPVDTATYYCARGVPAYSHGGDLWGQGTLVTVSSASTKGPSVFPLAPSSKSTSGGTAALGCLVKDYFPEPVTVSWNSGALTSGVHTFPAVLQSSGLYSLSSVVTVPSSSLGTQTYICNVNHKPSNTKVDKKVEPKSCDKTHTCPPCPAPELLNGPSVFLFPPKPKDTLMISRTPEVTCVVVDVSEEDPEVKFNWYVDGVEVHNAKTKPREEQYNSTYRVVSVLTVLHQDWLNGKEYKCKVSNKALPAPIEKTISKAKGQPREPQVYTLPPSREEMTKNQVSLTCLVKGFYPSDIAVEWESNGQPENNYKTTPLVLDSDGSFFLYSKLTVDKSRWQQGNVFSCSVMHEALHNHYTQKSLSLSP
light: DIVMTQSPATLSLSPGERATLSCTSSQSVYHANWLSWFQQKPGQPPKLLIYWASTLAYGVPSRFSGSGSGTDFTLTISSLQPEDAATYYCAGGYGGGRYAFGQGTKVEIKRTVAAPSVFIFPPSDEQLKSGTASVVCLLNNFYPREAKVQWKVDNALQSGNSQESVTEQDSKDSTYSLSSTLTLSKADYEKHKVYACEVTHQGLSSPVTKSFNRGEC
notes: EU numbering

KD fold (SG1 = 1) [7]: 3.5 fold
B2: M103205H795-MY468/M103202L889-SK1 (antibody)
chain 1: QVTLKESGPVLVKPTETLTLTCTVSGIDLSHDDISWVRQAPGKGLEWVGIISYAGSTYYASWAKGRLTISKDTSKNQVVLTMTNMDPVDTATYYCARGVPAYSHGGDLWGQGTLVTVSSASTKGPSVFPLAPSSKSTSGGTAALGCLVKDYFPEPVTVSWNSGALTSGVHTFPAVLQSSGLYSLSSVVTVPSSSLGTQTYICNVNHKPSNTKVDKKVEPKSCDKTHTCPPCPNPELLTGPSVFLFPPKPKDTLMISRTPEVTCVVVDVSDEDPEVKFNWYVDGVEVHNAKTKPREEQYNSTYRVVSVLTVLHQDWLNGKEYKCKVSNKALPKPIEKTISKAKGQPREPQVYTLPPSREEMTKNQVSLTCLVKGFYPSDIAVEWESNGQPENNYKTTPPVLDSDGSFFLYSKLTVDKSRWQQGNVFSCSVMHEALHNHYTQKSLSLSP
chain 2: DIVMTQSPATLSLSPGERATLSCTSSQSVYHANWLSWFQQKPGQPPKLLIYWASTLAYGVPSRFSGSGSGTDFTLTISSLQPEDAATYYCAGGYGGGRYAFGQGTKVEIKRTVAAPSVFIFPPSDEQLKSGTASVVCLLNNFYPREAKVQWKVDNALQSGNSQESVTEQDSKDSTYSLSSTLTLSKADYEKHKVYACEVTHQGLSSPVTKSFNRGEC

KD fold (SG1 = 1) [7]: 2.6 fold
B3: M103205H795-MY452/M103202L889-SK1 (antibody, human IgG1, kappa)
heavy: QVTLKESGPVLVKPTETLTLTCTVSGIDLSHDDISWVRQAPGKGLEWVGIISYAGSTYYASWAKGRLTISKDTSKNQVVLTMTNMDPVDTATYYCARGVPAYSHGGDLWGQGTLVTVSSASTKGPSVFPLAPSSKSTSGGTAALGCLVKDYFPEPVTVSWNSGALTSGVHTFPAVLQSSGLYSLSSVVTVPSSSLGTQTYICNVNHKPSNTKVDKKVEPKSCDKTHTCPPCPAQELLTGPSVFLFPPKPKDTLMISRTPEVTCVVVDVSDEDPEVKFNWYVDGVEVHNAKTKPREEQYNSTYRVVSVLTVLHQDWLNGKEYKCKVSNKALPKPIEKTISKAKGQPREPQVYTLPPSREEMTKNQVSLTCLVKGFYPSDIAVEWESNGQPENNYKTTPPVLDSDGSFFLYSKLTVDKSRWQQGNVFSCSVMHEALHNHYTQKSLSLSP
light: DIVMTQSPATLSLSPGERATLSCTSSQSVYHANWLSWFQQKPGQPPKLLIYWASTLAYGVPSRFSGSGSGTDFTLTISSLQPEDAATYYCAGGYGGGRYAFGQGTKVEIKRTVAAPSVFIFPPSDEQLKSGTASVVCLLNNFYPREAKVQWKVDNALQSGNSQESVTEQDSKDSTYSLSSTLTLSKADYEKHKVYACEVTHQGLSSPVTKSFNRGEC
notes: Substitutions in EU numbering on SG1

Binding to human FcgRs (parent B3 = 100) [8]: 54
Binding to human FcgRs (parent B3 = 100) [9]: 81
Binding to human FcgRs (parent B3 = 100) [10]: 75
B4: GpH7-B3 G236N / GpL16-k0 (antibody, human IgG1, kappa)
heavy: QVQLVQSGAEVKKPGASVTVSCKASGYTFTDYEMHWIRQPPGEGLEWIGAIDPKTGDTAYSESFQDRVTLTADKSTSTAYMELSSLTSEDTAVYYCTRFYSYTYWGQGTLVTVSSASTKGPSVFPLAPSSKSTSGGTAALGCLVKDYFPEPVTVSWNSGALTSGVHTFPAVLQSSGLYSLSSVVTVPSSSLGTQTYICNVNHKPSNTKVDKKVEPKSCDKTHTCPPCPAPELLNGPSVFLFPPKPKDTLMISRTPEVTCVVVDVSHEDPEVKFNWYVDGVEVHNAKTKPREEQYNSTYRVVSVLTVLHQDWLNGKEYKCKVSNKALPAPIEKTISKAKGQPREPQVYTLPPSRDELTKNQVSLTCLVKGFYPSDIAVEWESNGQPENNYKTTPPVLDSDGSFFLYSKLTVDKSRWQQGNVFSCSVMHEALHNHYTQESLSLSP
light: DIVMTQSPLSLPVTPGEPASISCQASESLVHSNRNTYLHWYLQKPGQSPQLLIYKVSNRFSGVPDRFSGSGSGTDFTLKISRVEAEDVGVYYCSQNTHVPPTFGQGTKVEIERTVAAPSVFIFPPSDEQLKSGTASVVCLLNNFYPREAKVQWKVDNALQSGNSQESVTEQDSKDSTYSLSSTLTLSKADYEKHKVYACEVTHQGLSSPVTKSFNRGEC
notes: also called B3 variant G236N
